This note sets out measurements from PMC4974476, “Structural basis for LIN54 recognition of CHR elements in cell cycle-regulated promoters”.

Series [1] addresses T1, LIN54 DBD-C (Homo sapiens, UniProt Q6MZP7 589-646). As to the kind of experiment: NMR HSQC titration; 35 mM MES, 75 mM NaCl, pH 6.0, 25 C; ITC (25 C) and FP: 20 mM Tris, 150 mM NaCl, 0.1% Tween 20, pH 8.0; NMR: 35 mM MES, 75 mM NaCl, 5% D2O, pH 6.0, 25 C. The settings on record: protein: recombinant; tags: N-terminal GST with TEV site, cleaved; blunt.
The target of another series is LIN54 DBD Y536A (Homo sapiens, UniProt Q6MZP7 515-646, Y536A). As to the kind of experiment: ITC; ITC (25 C) and FP: 20 mM Tris, 150 mM NaCl, 0.1% Tween 20, pH 8.0; NMR: 35 mM MES, 75 mM NaCl, 5% D2O, pH 6.0, 25 C. The settings on record: protein: recombinant; tags: N-terminal GST with TEV site, cleaved; blunt. A general note: In ITC the heat of successive injections is recorded.

The next series concerns the target LIN54 DBD Y536R (Homo sapiens, UniProt Q6MZP7 515-646, Y536R). The series is described as above. The settings on record: protein: recombinant; tags: N-terminal GST with TEV site, cleaved; blunt.
Another series concerns the target LIN54 DBD Y610R (Homo sapiens, UniProt Q6MZP7 515-646, Y610R). Described as above. The settings on record: protein: recombinant; tags: N-terminal GST with TEV site, cleaved; blunt.
In series [2] the target is T2, LIN54 DBD (Homo sapiens, UniProt Q6MZP7 515-646). Described as above. The settings on record: protein: recombinant; tags: N-terminal GST with TEV site, cleaved; blunt.
Another series deals with LIN54 DBD Y610F (Homo sapiens, UniProt Q6MZP7 515-646, Y610F). The description is as above. The settings on record: protein: recombinant; tags: N-terminal GST with TEV site, cleaved; blunt.
For the next series, the target named is LIN54 DBD Y610A (Homo sapiens, UniProt Q6MZP7 515-646, Y610A). The series is described as above. The settings on record: protein: recombinant; tags: N-terminal GST with TEV site, cleaved; blunt.
Another series concerns the target LIN54 DBD Y536F (Homo sapiens, UniProt Q6MZP7 515-646, Y536F). The series is described as above. The settings on record: protein: recombinant; tags: N-terminal GST with TEV site, cleaved; blunt.
Series [3] has as its target T2, LIN54 DBD. The series can be described thus: fluorescence polarization; ITC (25 C) and FP: 20 mM Tris, 150 mM NaCl, 0.1% Tween 20, pH 8.0; NMR: 35 mM MES, 75 mM NaCl, 5% D2O, pH 6.0, 25 C. The settings on record: protein: recombinant, tags: N-terminal GST with TEV site, cleaved, blunt.
Series [4] has as its target T1, LIN54 DBD-C. The description is as above. The settings on record: protein: recombinant; tags: N-terminal GST with TEV site, cleaved; label: 3' TAMRA on strand 1; blunt.
A further series deals with LIN54 DBD-N (Homo sapiens, UniProt Q6MZP7 515-574). Described as above. The settings on record: protein: recombinant; tags: N-terminal GST with TEV site, cleaved; label: 3' TAMRA on strand 1; blunt.
LIN54 DBD-N, sequence (Q6MZP7 515-574): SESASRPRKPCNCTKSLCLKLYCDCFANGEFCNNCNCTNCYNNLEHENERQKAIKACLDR

T2 sequence (Q6MZP7 515-646): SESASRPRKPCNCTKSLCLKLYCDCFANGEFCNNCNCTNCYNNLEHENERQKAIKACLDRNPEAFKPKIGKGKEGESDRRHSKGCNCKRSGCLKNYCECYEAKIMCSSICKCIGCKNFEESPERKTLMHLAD
T1 sequence (Q6MZP7 589-646): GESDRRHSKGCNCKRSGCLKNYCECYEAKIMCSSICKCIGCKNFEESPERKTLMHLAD
LIN54 DBD Y610F, sequence (Q6MZP7 515-646 Y610F): as the sequence (Q6MZP7 515-646) above, with Y96F counted along it
LIN54 DBD Y536F, sequence (Q6MZP7 515-646 Y536F): as the sequence (Q6MZP7 515-646) above, with Y22F counted along it
LIN54 DBD Y536R, sequence (Q6MZP7 515-646 Y536R): as the sequence (Q6MZP7 515-646) above, with Y22R counted along it
LIN54 DBD Y610R, sequence (Q6MZP7 515-646 Y610R): as the sequence (Q6MZP7 515-646) above, with Y96R counted along it
LIN54 DBD Y536A, sequence (Q6MZP7 515-646 Y536A): as the sequence (Q6MZP7 515-646) above, with Y22A counted along it
LIN54 DBD Y610A, sequence (Q6MZP7 515-646 Y610A): as the sequence (Q6MZP7 515-646) above, with Y96A counted along it

B1: CHR13 (dsDNA)
DNA 1: GAGTTTGAAACTG
DNA 2: CAGTTTCAAACTC
As a reminder, the Kd is the equilibrium constant for the complex coming apart. Turning to B1, the Kd with LIN54 DBD-C [1] came out at 500 ± 100 µM; with LIN54 DBD [2] it was 2800 ± 100 nM. For the same molecule, the binding result in the series with LIN54 DBD Y536A, in the series with LIN54 DBD Y536R, with LIN54 DBD Y610R, with LIN54 DBD Y610F, with LIN54 DBD Y610A and in the series with LIN54 DBD Y536F was “no binding” throughout.

B2: CHR27 (dsDNA)
DNA 1: CCTTTAGCGCGGTGAGTTTGAAACTGTAA
DNA 2: TTACAGTTTCAAACTCACCGCGCTAAAGG
For B2, in the series with LIN54 DBD [3] (label: 3' TAMRA on strand 1), the dissociation constant Kd stood at 430 ± 80 nM. Also, the binding result in the series with LIN54 DBD-C [4] and in the series with LIN54 DBD-N was “no binding” each time.

B3: CHR13 (FP) (dsDNA)
DNA 1: GAGTTTGAAACTG
DNA 2: CAGTTTCAAACTC
Turning to B3, in the series with LIN54 DBD [3], the Kd worked out at 5000 ± 2000 nM.
